# Test results from article PMC5795786 (Genes & Development, 2017).
# T1: Phosphatase-treated Dbf4 purified from yeast cells (S. cerevisiae (endogenous in yeast), UniProt P32325 1-704, treated with λ-phosphatase)
# T1 sequence (looked up): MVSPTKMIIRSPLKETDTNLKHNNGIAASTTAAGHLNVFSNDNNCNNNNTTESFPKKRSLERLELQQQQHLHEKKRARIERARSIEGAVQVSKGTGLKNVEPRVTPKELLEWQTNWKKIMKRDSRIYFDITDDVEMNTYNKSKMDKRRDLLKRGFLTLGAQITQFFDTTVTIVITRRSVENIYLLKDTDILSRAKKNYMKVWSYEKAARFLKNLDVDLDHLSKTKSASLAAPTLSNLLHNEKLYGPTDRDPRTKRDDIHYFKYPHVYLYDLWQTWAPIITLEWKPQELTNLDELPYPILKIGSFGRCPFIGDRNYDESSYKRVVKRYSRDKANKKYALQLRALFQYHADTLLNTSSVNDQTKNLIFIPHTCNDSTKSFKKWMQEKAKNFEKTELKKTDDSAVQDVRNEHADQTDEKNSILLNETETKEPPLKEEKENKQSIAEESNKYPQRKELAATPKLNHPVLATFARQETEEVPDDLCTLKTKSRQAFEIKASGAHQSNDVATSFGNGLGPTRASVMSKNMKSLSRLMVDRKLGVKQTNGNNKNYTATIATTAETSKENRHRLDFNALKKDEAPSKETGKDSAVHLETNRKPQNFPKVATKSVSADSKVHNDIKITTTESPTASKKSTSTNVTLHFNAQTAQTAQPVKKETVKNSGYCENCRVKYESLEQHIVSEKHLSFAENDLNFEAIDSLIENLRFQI
# T2: GST-Dbf4 (S. cerevisiae (budding yeast), UniProt P32325 1-704)
# T2 sequence (looked up): T1 sequence (looked up)
# T3: Purified recombinant Dbf4 (6His-Dbf4p, pET28a-Dbf4) (S. cerevisiae (budding yeast), UniProt P32325 1-704)
# T3 sequence (looked up): T1 sequence (looked up)
# B1: GST-Fkh1 (natural protein, S. cerevisiae (budding yeast), UniProt P40466 1-484, looked up)
# chain: MSVTSREQKFSGKYSSYTAQDRQGLVNAVTCVLSSSSDPVAVSSDYSNSLSIAREVNAYAKIAGCDWTYYVQKLEVTIGRNTDSLNLNAVPGTVVKKNIDIDLGPAKIVSRKHAAIRFNLESGSWELQIFGRNGAKVNFRRIPTGPDSPPTVLQSGCIIDIGGVQMIFILPEQETIISDYCLNHLMPKLLSTYGTNGNNNPLLRNIIEGSTYLREQRLQEEARLQQLDHLHTPLSSSSDVNPIGDPHGDTIMMEEDEEDENYTRGGIRPNTYTSSSNNAVTNGNVPHIENPSDLSLDENRYIKPPQSYASMITQAILSTPEGSISLADIYKFISDNYAFYRFSQMAWQNSVRHNLSLNKAFEKVPKRAGQQGKGMNWKISDEVRRDFLNKWNAGKLSKIRRGASVTRQLQLHMSKFGEIPAPESSSIDPRGIKAQKVKKSLQATSSILGESAPQLQRTQLTGQISTTTSMDVTTNANVNNSSLS
# B2: 6His-Dbf4 (656-704) (domain or fragment, S. cerevisiae (budding yeast), UniProt P32325 656-704, looked up)
# chain: KNSGYCENCRVKYESLEQHIVSEKHLSFAENDLNFEAIDSLIENLRFQI
# B3: His6-Sld3 (natural protein, S. cerevisiae (budding yeast), UniProt P53135 1-668, looked up)
# chain: METWEVIASVKEATKGLDLSLDHPLIIKSEDVPSNILQLLQQKNRRQLKHICMKSRKEYFLLEEYGPGFWVKWPYNYFNGYSLPERRTEVVTTVERERAKRETLKTWDELKFKELLHLWSEEPKGSCKLEKDKDLKLDMNPPDMKGESKINDYYSDPKEYIESKYYDALFSIHTPLAYFVKSNLVRLKNTCRTKYGSDSYKIAYQAMLQKFLLSIVQFKDRHDNRLLLEPFSSPIADEKRKNCLTKFVIQDENKNSSTIADLCVVLKSREIKLQILLLLEIIGLNDLDWNFRDFEKKYKLKLKKRSLNLTKKGLVRRRSKKKTSEKDKGIERITTSLDYCEQLDLYLDRACILDILLSSETPNPDAIEASNGTIQEHKKNILDKSKEASLVGFINYVLIPYFNKKVPHAVEFIIQKLKGPSMRPKRALKKVNDSTNVSSPNTVETYNRLSTSQRASRSSIINSVPSSPALRRVDANLFSRKSIASPTPELLNSRTNSNLNEFLESETRSLKRPSQLGRTKSDLTMNHLQKRQFSVSDLSTTRVPNSSTITLKTPFSHSTINAYKTMNNSFRRVGKRKDINETIRLHERVDSEENVQVQATPAVKKRTVTPNKKAQLQSIIESPLNFKDDDTHEGRKNTSNITSTPTNKPPENSSKRRVRRRLFAPEST
# B4: GST-Dbf4 (1-390) (domain or fragment, S. cerevisiae (budding yeast), UniProt P32325 1-390, looked up)
# chain: MVSPTKMIIRSPLKETDTNLKHNNGIAASTTAAGHLNVFSNDNNCNNNNTTESFPKKRSLERLELQQQQHLHEKKRARIERARSIEGAVQVSKGTGLKNVEPRVTPKELLEWQTNWKKIMKRDSRIYFDITDDVEMNTYNKSKMDKRRDLLKRGFLTLGAQITQFFDTTVTIVITRRSVENIYLLKDTDILSRAKKNYMKVWSYEKAARFLKNLDVDLDHLSKTKSASLAAPTLSNLLHNEKLYGPTDRDPRTKRDDIHYFKYPHVYLYDLWQTWAPIITLEWKPQELTNLDELPYPILKIGSFGRCPFIGDRNYDESSYKRVVKRYSRDKANKKYALQLRALFQYHADTLLNTSSVNDQTKNLIFIPHTCNDSTKSFKKWMQEKAKNFE
# B5: Purified recombinant Fkh1 (in vitro recruitment assay) (natural protein, S. cerevisiae (budding yeast), UniProt P40466 1-484, looked up)
# chain: B1 chain
# Assays:
# [1] = biological target: T1, Phosphatase-treated Dbf4 purified from …; assay: pull-down
# GST-Fkh1 = biological target: B1; assay: pull-down
# GST-Dbf4 = biological target: T2, GST-Dbf4; assay: pull-down
# His6-Sld3 = biological target: B3; assay: pull-down
# [2] = biological target: T3, Purified recombinant Dbf4 (6His-Dbf4p, …); assay: in vitro origin recruitment assay on DNA beads
binder,measurement,setting,value
B1,binding result,[1],binds
B2,binding result,GST-Fkh1,binds
B3,binding result,GST-Dbf4,binds
B4,binding result,His6-Sld3,binds
B5,binding result,[2],binds
